Values belong to the sequence of their own block, whether it stands above or below them.
Experiments:
HLA-B*51:01 [1] = experiment: IEDB peptide-MHC binding, purified MHC/competitive/fluorescence; filed as Kd, often an IC50 or EC50 that approximates it; ≥ and ≤ were set here for values at or beyond the usual limits of such assays; details: source organism: Burkholderia ambifaria AMMD
HLA-A*02:01 [2] = experiment: IEDB peptide-MHC binding, purified MHC/competitive/radioactivity; filed as Kd, often an IC50 or EC50 that approximates it; ≥ and ≤ were set here for values at or beyond the usual limits of such assays
HLA-B*07:02 [3] = experiment: as above
HLA-B*44:03 = experiment: as above; details: source organism: Dengue virus 1 Brazil/97-11/1997
HLA-A*24:02 [4] = experiment: IEDB peptide-MHC binding, purified MHC/competitive/fluorescence; ≥ and ≤ were set here for values at or beyond the usual limits of such assays
HLA-A*02:01 [5] = experiment: as above
HLA-B*40:01 [6] = experiment: IEDB peptide-MHC binding, purified MHC/competitive/radioactivity; filed as Kd, often an IC50 or EC50 that approximates it; ≥ and ≤ were set here for values at or beyond the usual limits of such assays
HLA-A*24:02 [7] = experiment: as above; details: source organism: Dengue virus 1 Brazil/97-11/1997
HLA-A*23:01 = experiment: as above; details: source organism: Dengue virus 1 Brazil/97-11/1997
HLA-B*35:01 = experiment: as above; details: source organism: Dengue virus 1 Brazil/97-11/1997
HLA-B*53:01 = experiment: as above; details: source organism: Dengue virus 1 Brazil/97-11/1997
HLA-A*01:01 = experiment: IEDB peptide-MHC binding, purified MHC/direct/fluorescence; filed as Kd, often an IC50 or EC50 that approximates it; ≥ and ≤ were set here for values at or beyond the usual limits of such assays
HLA-B*27:05 = experiment: as above
HLA-A*26:01 [8] = experiment: as above
HLA-B*40:01 [9] = experiment: as above
HLA-A*31:01 = experiment: as above; details: source organism: Salmonella enterica
HLA-A*11:01 = experiment: as above
HLA-A*69:01 = experiment: as above
HLA-B*15:01 [10] = experiment: as above
HLA-A*02:01 [11] = experiment: as above
HLA-B*58:01 = experiment: as above
HLA-A*24:03 = experiment: as above
HLA-B*08:01 = experiment: as above
HLA-B*07:02 [12] = experiment: as above
HLA-A*03:01 = experiment: as above
HLA-B*44:02 [13] = experiment: as above
HLA-A*30:01 = experiment: IEDB peptide-MHC binding, purified MHC/competitive/radioactivity; filed as Kd, often an IC50 or EC50 that approximates it; ≥ and ≤ were set here for values at or beyond the usual limits of such assays; details: source organism: Dengue virus 1 Brazil/97-11/1997
HLA-B*44:02 [14] = experiment: as above
HLA-B*51:01 [15] = experiment: as above; details: source organism: Dengue virus 2 16681-PDK53
HLA-B*15:01 [16] = experiment: IEDB peptide-MHC binding, purified MHC/competitive/fluorescence; filed as Kd, often an IC50 or EC50 that approximates it; ≥ and ≤ were set here for values at or beyond the usual limits of such assays; details: source organism: Yersinia pestis Nepal516
HLA-B*39:01 = experiment: as above
HLA-A*26:01 [17] = experiment: as above; details: source organism: Yersinia pestis Nepal516
[18] = source organism: Vaccinia virus WR
[19] = source organism: Zaire ebolavirus
[20] = source organism: Dengue virus 1 Brazil/97-11/1997
[21] = source organism: Vaccinia virus
[22] = source organism: Dengue virus 4 Philippines/H241/1956
[23] = source organism: Salmonella enterica
[24] = source organism: Salmonella enterica subsp. enterica serovar Typhi
[25] = source organism: Vibrio cholerae

Sequence: LPWSSPQLW
Kd (HLA-B*51:01 [1]): 0.0906 µM

Sequence: LTLTNTSII
Kd (HLA-A*02:01 [2]; source organism: Lassa virus Josiah): 6.25 µM

Sequence: LVMKDGRVL
Kd (HLA-B*07:02 [3]; source organism: Dengue virus 2 Jamaica/1409/1983): 0.00107 µM

Sequence: MEVTAKWLWG
Kd (HLA-B*44:03): 0.128 µM

Sequence: NGTLEFTPI
IC50 (HLA-A*24:02 [4]; [18]): 23.1 µM | IC50 (HLA-A*02:01 [5]; [18]): 11.1 µM

Sequence: NLEEICQLI
IC50 (HLA-A*24:02 [4]; [19]): ≥ 90.8 µM | IC50 (HLA-A*02:01 [5]; [19]): 65.1 µM

Sequence: PEVANLDII
Kd (HLA-B*40:01 [6]; [20]): 8.59 µM

Sequence: QYVDDANLE
IC50 (HLA-A*24:02 [4]; [21]): ≥ 1330 µM

Sequence: RAAGLQDCTM
Kd (HLA-A*02:01 [2]; source organism: Hepatitis C virus (isolate 1)): ≥ 50 µM

Sequence: REWCFTGERN
Kd (HLA-B*40:01 [6]; [22]): 0.502 µM

Sequence: RKHHTKIDS
IC50 (HLA-A*24:02 [4]; source organism: Variola virus): 27.2 µM

Sequence: RLGLSRPLL
Kd (HLA-A*02:01 [2]; source organism: Hepatitis B virus subtype ayw): ≥ 5 µM

Sequence: RNTTPMMIQ
IC50 (HLA-A*24:02 [4]; [21]): ≥ 70.4 µM

Sequence: RPMFAVGLLF
Kd (HLA-A*24:02 [7]): 0.416 µM | Kd (HLA-A*23:01): 0.0339 µM | Kd (HLA-B*35:01): 0.919 µM | Kd (HLA-B*53:01): 0.0935 µM | Kd (HLA-B*07:02 [3]; [20]): 0.0105 µM

Sequence: RPQLGVGDV
Kd (HLA-A*01:01; [23]): ≥ 20 µM | Kd (HLA-B*27:05; [23]): ≥ 20 µM | Kd (HLA-A*26:01 [8]; [23]): ≥ 20 µM | Kd (HLA-B*40:01 [9]; [23]): ≥ 20 µM | Kd (HLA-A*31:01): ≥ 20 µM | Kd (HLA-A*11:01; [23]): ≥ 20 µM | Kd (HLA-A*69:01; [23]): ≥ 20 µM | Kd (HLA-B*15:01 [10]; [23]): ≥ 20 µM | Kd (HLA-A*02:01 [11]; [23]): ≥ 20 µM | Kd (HLA-B*58:01; [23]): ≥ 20 µM | Kd (HLA-A*24:03; [24]): 6.18 µM | Kd (HLA-B*08:01; [23]): ≥ 20 µM | Kd (HLA-B*07:02 [12]; [24]): 0.38 µM | Kd (HLA-A*03:01; [23]): ≥ 20 µM | Kd (HLA-B*44:02 [13]; [23]): ≥ 20 µM

Sequence: RQTQSRPIQ
IC50 (HLA-A*24:02 [4]; [19]): ≥ 125 µM

Sequence: RSRWSRKML
Kd (HLA-A*30:01): 0.0904 µM | Kd (HLA-B*07:02 [3]; [20]): 0.0931 µM

Sequence: SGASTSQETW
Kd (HLA-B*44:02 [14]; [20]): 10.9 µM

Sequence: SISGVLWQV
Kd (HLA-A*02:01 [2]; source organism: Hepatitis C virus subtype 2b): 0.036 µM

Sequence: SPIIDKKGKV
Kd (HLA-B*51:01 [15]): ≥ 69.6 µM | Kd (HLA-B*07:02 [3]; source organism: Dengue virus 2 16681-PDK53): 0.582 µM

Sequence: SVMPAWQEK
Kd (HLA-A*01:01; [25]): ≥ 20 µM | Kd (HLA-B*27:05; [25]): ≥ 20 µM | Kd (HLA-A*26:01 [8]; [25]): ≥ 20 µM | Kd (HLA-B*40:01 [9]; [25]): ≥ 20 µM | Kd (HLA-A*11:01; [25]): 0.00501 µM | Kd (HLA-A*69:01; [25]): ≥ 20 µM | Kd (HLA-B*15:01 [10]; [25]): ≥ 20 µM | Kd (HLA-A*02:01 [11]; [25]): ≥ 20 µM | Kd (HLA-B*58:01; [25]): ≥ 20 µM | Kd (HLA-A*24:03; [25]): 10.3 µM | Kd (HLA-B*08:01; [25]): ≥ 20 µM | Kd (HLA-B*07:02 [12]; [25]): ≥ 20 µM | Kd (HLA-A*03:01; [25]): 0.0741 µM | Kd (HLA-B*44:02 [13]; [25]): ≥ 20 µM

Sequence: TEYKRVMTF
Kd (HLA-B*15:01 [16]): 0.767 µM

Kd (HLA-B*39:01; source organism: Shewanella putrefaciens CN-32): 2.48 µM
Sequence: THEILWPSF

Sequence: VEITALILGA
Kd (HLA-B*40:01 [6]; [22]): 0.842 µM

Sequence: WENVPYLGK
Kd (HLA-B*44:02 [14]; source organism: Dengue virus 3 Martinique/1243/1999): 8.42 µM

Sequence: YNAELLVAL
Kd (HLA-B*39:01; source organism: Influenza A virus (A/gray teal/Australia/2/1979(H4N4))): 0.0009 µM

Sequence: YTYATRGIY
Kd (HLA-A*26:01 [17]): 0.0062 µM

Source: the Immune Epitope Database (IEDB)
